Laboratory results reported in paper PMC5575849 (Developmental cell, 2017).

Target: the molecule itself
Test: single-cell single-molecule pull-down

B1: mNG::AraD (mNG::3xFlag::AraD) (enzyme, E. coli, UniProt P08203 1-231, looked up)
chain: MLEDLKRQVLEANLALPKHNLVTLTWGNVSAVDRERGVFVIKPSGVDYSVMTADDMVVVSIETGEVVEGTKKPSSDTPTHRLLYQAFPSIGGIVHTHSRHATIWAQAGQSIPATGTTHADYFYGTIPCTRKMTDAEINGEYEWETGNVIVETFEKQGIDAAQMPGVLVHSHGPFAWGKNAEDAVHNAIVLEEVAYMGIFCRQLAPQLPDMQQTLLDKHYLRKHGAKAYYGQ
Q: How did the “stoichiometry N” value turn out when B1 was run?
A: 4
